Legend:
Test in all cases: MST
[1] = target: AciKC lyase domain (residues 1–219)
[2] = target: CurKC lyase domain (residues 1–217) (Thermomonospora curvata DSM43183)
[3] = target: CurKC kinase domain (residues 218–489) (Thermomonospora curvata DSM43183)
[4] = target: CurKC leader recognition domain (LRD, residues 222–309), GB1 tag removed (Thermomonospora curvata DSM43183)
[5] = target: CurKC lyase-kinase didomain (residues 1–489) (Thermomonospora curvata DSM43183)
[6] = target: CurKC, class III lanthipeptide synthetase from the biosynthesis of curvopeptin (full-length) (Thermomonospora curvata DSM43183)

Kd [1] [µM] | Kd [2] [µM] | Kd [3] [µM] | Kd [4] [µM] | Kd [5] [µM] | Kd [6] [µM] | Substance
209 | 170 |  |  |  |  | CurKC kinase domain (residues 218–489) (domain or fragment)
43.9 | 14.8 |  |  |  |  | AciKC kinase domain (residues 220–495) (domain or fragment)
 | 139 |  |  |  |  | CurKC leader recognition domain (LRD, residues 222–309), GB1 tag removed (domain or fragment)
 |  | 801 | 1200 | 84 | 5.5 | CurA leader peptide

From paper PMC9828337
